The values that follow come from a protein production outcome set (Wang et al. 2014).

This data set is described as follows: label from the status in PepcDB records.
For “MRIRLLGGLEVMSREHRQVRFTTRKTSLLFAALVLGGRRGYRRELLSETFWPGRSNEQARNSLRQALVDIRRSFPAGGDAPVYIDGDQETVALITGPDETDISIFDRKLEAGRTADLAFAADLYRGEVLAGEAIPDELDEWFGPYRSTYQRKALQLVERLSQALSEPGTAEESACEGLAERLLAMDPTVEAAHRALMQIHALRGHENAALRQFEACRALLRKHLQAEPEAETSSLAASLQSRQGSEHRRTTPGPDPVPQPQAISAPAKHHDRPSVAVLPFQNLSGDAEQEYFADGIVEDITIALAQFRHLYVIARNSSFTYKGQAVDIKQVGRELDVRYVVEGSVRRTGDRLRIAGQLIDTSTGTHLWADRFDGTLANVFDLQDQVASSIVGAITPKVEEAEIERAKRKPTESLDAYDYYLRGLAAFDRTVTNRSVIDEALRLFREAIERDPEFAVAHARAARCYATRKSNGWMLNPADETAEATRLARRAVELGWDDAVALTYGGYVIGYVGGDLDDSAACIDRAVSLNPNLAAALGVSSWVKVCLGEPDKAIEHATLAMRLSPLDPRLFAWQFNIGLAHFCAGHYDDAAVWAGKSLRHQLNYPSAMRVMAASQAMAGRLAQARETIARLCLMDPALRLSNLADVLPPFRRPDDRNRYIEALRMAGLPE”, the protein production result is on record as “failed”.

“MRISFVGSGKVATHLAKAFAQQHQIIQIMSRNLPHAEKLAHQVGACAIDNYSQIEQEIDLLVIAVSDQSISSVIQAVHVFVPEQLIVHTSGSTDVKILSDIHSNAGVFYPLQTFSFERDIHWSDTPLLIEAEQANSLSILNALANSLTKRVYHYSSTQRLSLHLAAVFACNFSNYCYDMAKQTVDQAQVDFSLLYPLILETAKKATQHDPVQVQTGPAVRHDHNIVELHQNLLLKANRPDLKDIYQRLSQAIIARHHTQP”: the protein production result is reported as “failed”.

Regarding “MRITTLEELLEALDELFDDGSDLTRRGAQDPWERVFSQPGHPLASDLPDACLVDWTRQGLLPSGDGLTALDLGCGLGRNARWLARQGYAVTGLDLSPYAVGQARERTPGPDIRYLEGDVLRDPIPGGPFDVVYDSGCFHHLPPHRRLSYLHTLGQVLRPGGWFGLCTFAWGRMGSAKSDLELLRQGQLEGGVGYTLDDLREMFGGLDFVTGSLLSELEPASEPVFQMDFLQAALFRRPE”, the protein production entry is “failed”.

With “MRKDEYRATLLEPNVWHIADYRGDSMYLVVGEEKALLVDTGMGEGDLKGFVRSITEKPVEVVLTHAHWDHIMQANQFEKVYLNHRDFQIIELFKINVNYENFLNVKEGDRFDLGGRTLEVIEVPGHTPGSIVLLDRENRLLFSGDSVGAGHTWMHLPGCLPLREYLKSLKKLKETDSFEKIYHGHLTGTQLKPFGPDYLDDLIKAVEGVIDGSLRGEP”, the protein production entry is given as “failed”.

As for “MRKFKISVLLKLGFYCLFLSIGLEMQARKFVHPGILHTTKSIERMRAQIADKEYPAYGSFELLKSHHCSQADYQPFGPFEIISRDGEFRHTKSKMEQDFSAVYQNALMWVLTGEKTHAEKSLELLLGYAGTLKRIPETNDAPLLVGLEGLKIIYATEILRHTYKKMTVVQFNEISRMIREVFLPVMENFYHRKPYTNGNWGPIVTKAYMAAAILWDNEEMYNKAVDFYLHANDNGTIAHYISGDTGQIQESGRDQGHSMLGIGALATVCEIAWQQGDDLYSALDNRLMKGFEYVAKYNLGYNVPFAVWKDVTGKYSNWTEISNKGRGRYMPIFEMTYNHFVIRKGMQMPYTEQVLRQIRPEGYDRDQPAFGSLLFNEAGTKKNYVDLVNPFVDSHRSRWFFFSSACRPFGMVSLSPDTDTEHSWGSGYLYDSKQIRCFSHVHNWQMSGVAVMPTVGEFKGHLGMNAYQSAFTHDGEIAKPGYHKVKLTDYDITAELTSTMRVGFHCYTFPKSDASYILFDTGAFLAHGPTAYSEVWKVSDKEIAGWEMMERTGRRPKDTPVYFYAQLSKPMDKVVSWREGRIESNSNPERISGKNAGMAVRFKTEKDEKVMLKVAISYVSVEQARKNMLTELSGWDFEQVKQSSFSEWNDWLGRIEVEGGSREQQIKLYTDLWHALLGRHVVSDADGHYMDMTSDFPRIRQIPLGEDGKPLYNHHNFDAWWGSHWSLNILWSMAYPEVMDNFCNTMIDMYQNGGLIPRGPSGGNYTYVMIGDPAVSFFASAYNKGIRNYDAELAYEGLRKNAFVGGIRDHAGYEHSKTAYSGGMKYYEEWGYVPDGRKDVEGMHTTGASMTLEYAYQDWCLAQMAKTMGKLQDYEFFMKRSKNYRNLWNPESGYMQPRGEDGNWLPYFDPLELTEKGGFCESNSAIYSHYVPHDMAGLIELYGGADQYVKRLNANFEKSESYGFFRSNKTKEGNWTDYGNQPGTGMAHLFSYAGAPWLTQKWVRKVKAAYCDVTPYGGYRDDEDQGQMGALGVLMAIGLFEVDGGCAEKPFYEITSPLFDKVTIHLDNRYYSGKTFQIITKGNSTDNMYIQNASLNGKKWNKCWFYHEDFIKGGTLELKLGAKPNKKWGVEELPPSFISSK”, the protein production entry is “failed”.

Regarding “MRKKKRLISLLLAVFIAVACLPAGIARADKASSIELKFDRNKGEVGDILIGTVRINNIKNFAGFQVNIVYDPKVLMAVDPETGKEFTSSTFPPGRTVLKNNAYGPIQIADNDPEKGILNFALAYSYIAGYKETGVAEESGIIAKIGFKILQKKSTAVKFQDTLSMPGAISGTQLFDWDGEVITGYEVIQPDVLSLGDEPYETPGTDIPISDNPAATPSSTPSVTPSPEVKPTQTPSPAENSAKVELEPVLDNATGEAKAAIDEEKLNKALDEAKKSEDDKLVELNIKKVENADAYIQQLPAKFLIKSDAEYKLRIATEQGIIEVPANMLNTADISKLVKNDSVVEFVIRKVKVDELGAELKEKIGNRPVIDISVVVDGKKVEWSNYKAKVKISIPYKPDAKELENHEHIVVLHIDDAGKAVSVPSGKYEPSLGVVTFETNHLSKYAVSYVYKTFADIGSYAWAKKQIEVLASKGVINGTSDTTFTPQADITRADFMILLVKALGLTAEVTSNFDDVSEKDYYYEYVGIAKELGITTGVGNNKFNPKAKITRQDMMVLTTNALRIAGKISSTGTRADVERFSDKDQIASYAVEGVATLVKEGIVVGSGDIINPRGNASRAELAAIIYKIYYK”, the protein production entry was “not failed”.

With “MRKLWPLALLLAACGAQDVGAGLDPLRLTATSLPPAYLGEPYSASLAAEGGVRPYSFTLDGKLPEGLSFQGGRLFGVPKEKGSFPLLLTVEDAAKNSRAQRLTLTVSDPPPPRLALVLPPAQVEGPFLLLARVEGREAVGFQMEVRLADLEPDLAGLKALSPAHLLDYDPATRLLRLDMAFAKPVKDREAFRLLLTPQKPLVPRLSPKVVFYDKEGKPLGQPLPRGKPFAELLRLAQAWGREGKALKEDLDGDGKVGEADLRLLAQDYFPKPETPSPEAPGGGEGQASGEEQARLEHHHHHH”, the protein production entry was “failed”.

In the case of “MRKNHYPLRGYISTNRSKHNLKAHLILVCKYRKKLLQGDLNNFIKSVIDEIATQSNFIIIAMESDIDHLHLMVQYIPRMSISSIISRIKQITTYRVWRDKRFIPLLQKHFWKEKTFWTDGFFVCSIGEANPETIKAYIENQG”, the protein production result is “failed”.

For the sequence “MRKPKITVIGGGTGSPVILKSLREKDVEIAAIVTVADDGGSSGELRKNMQQLTPPGDLRNVLVAMSDMPKFYEKVFQYRFSEDAGAFAGHPLGNLIIAGLSEMQGSTYNAMQLLSKFFHTTGKIYPSSDHPLTLHAVFQDGTEVAGESHIVDHRGIIDNVYVTNALNDDTPLASRRVVQTILESDMIVLGPGSLFTSILPNIVIKEIGRALLETKAEIAYVCNIMTQRGETEHFTDSDHVEVLHRHLGRPFIDTVLVNIEKVPQEYMNSNRFDEYLVQVEHDFVGLCKQVSRVISSNFLRLENGGAFHDGDLIVDELMRIIQVKK”, the protein production result is recorded as “not failed”.

On to “MRKRARIIYNPTSGKELFKRVLPDALIKLEKAGYETSAYATEKIGDATFEAERALESEYDLLIAAGGDGTLNEVVNGIAEQPNRPKLGVIPMGTVNDFGRALHLPSDIMGAIDVIIDGHTTKVDIGKMNNRYFINLAAGGKLTQVSYETPSKLKSIVGPFAYYIKGFEMLPQMKAVDVRIEYDDNIFQGEALLFLLGLTNSMAGFEKLVPDAKLDDGYFTLIIVEKANLAELGHIMTLASRGEHTKHPKVIYAKAKSINISSFTDMQLNVDGEYGGKLPANFLNLEQHIEIFTPKDVFNEELLENDTITDITPDKQ”, for which the protein production result was “not failed”.
